From PMC7531860

Target: CfaE, tip-localized minor adhesive subunit of CFA/I fimbriae (enterotoxigenic Escherichia coli) (UniProt P25734)
Assay: […], fluorescence at 320 nm; […]

mtCfaA (CfaA variant with the triple residue substitution T112I/L114I/V116I on the G1 strand) (natural protein)
mid-point dissociation concentration of GdnCl: 0.966 M
